B1: Δ74-88: AnxA2 deletion of aa 74-88 (protein)
chain: MSTVHEILCKLSLEGDHSTPPSAYGSVKAYTNFDAERDALNIETAIKTKGVDEVTIVNILTNRSNAQRQDIAFSALSGHLETVILGLLKTPAQYDASELKASMKGLGTDEDSLIEIICSRTNQELQEINRVYKEMYKTDLEKDIISDTSGDFRKLMVALAKGRRAEDGSVIDYELIDQDARDLYDAGVKRKGTDVPKWISIMTERSVPHLQKVFDRYKSYSPYDMLESIRKEVKGDLENAFLNLVQCIQNKPLYFADRLYDSMKGKGTRDKVLIRIMVSRSEVDMLKIRSEFKRKYGKSLYYYIQQDTKGDYQKALLYLCGGDDYPYDVPDYA
B2: Δ49-61: AnxA2 deletion of aa 49-61 (protein)
chain: MSTVHEILCKLSLEGDHSTPPSAYGSVKAYTNFDAERDALNIETAIKTNRSNAQRQDIAFAYQRRTKKELASALKSALSGHLETVILGLLKTPAQYDASELKASMKGLGTDEDSLIEIICSRTNQELQEINRVYKEMYKTDLEKDIISDTSGDFRKLMVALAKGRRAEDGSVIDYELIDQDARDLYDAGVKRKGTDVPKWISIMTERSVPHLQKVFDRYKSYSPYDMLESIRKEVKGDLENAFLNLVQCIQNKPLYFADRLYDSMKGKGTRDKVLIRIMVSRSEVDMLKIRSEFKRKYGKSLYYYIQQDTKGDYQKALLYLCGGDDYPYDVPDYA
B3: ΔR4: AnxA2 deletion of aa 269-339 (protein)
chain: MSTVHEILCKLSLEGDHSTPPSAYGSVKAYTNFDAERDALNIETAIKTKGVDEVTIVNILTNRSNAQRQDIAFAYQRRTKKELASALKSALSGHLETVILGLLKTPAQYDASELKASMKGLGTDEDSLIEIICSRTNQELQEINRVYKEMYKTDLEKDIISDTSGDFRKLMVALAKGRRAEDGSVIDYELIDQDARDLYDAGVKRKGTDVPKWISIMTERSVPHLQKVFDRYKSYSPYDMLESIRKEVKGDLENAFLNLVQCIQNKPLYPYDVPDYA
B4: ΔR3: AnxA2 deletion of aa 193-268 (protein)
chain: MSTVHEILCKLSLEGDHSTPPSAYGSVKAYTNFDAERDALNIETAIKTKGVDEVTIVNILTNRSNAQRQDIAFAYQRRTKKELASALKSALSGHLETVILGLLKTPAQYDASELKASMKGLGTDEDSLIEIICSRTNQELQEINRVYKEMYKTDLEKDIISDTSGDFRKLMVALAKGRRAEDGSVIDYELIDYFADRLYDSMKGKGTRDKVLIRIMVSRSEVDMLKIRSEFKRKYGKSLYYYIQQDTKGDYQKALLYLCGGDDYPYDVPDYA
B5: Δ89-101: AnxA2 deletion of aa 89-101 (protein)
chain: MSTVHEILCKLSLEGDHSTPPSAYGSVKAYTNFDAERDALNIETAIKTKGVDEVTIVNILTNRSNAQRQDIAFAYQRRTKKELASALKLLKTPAQYDASELKASMKGLGTDEDSLIEIICSRTNQELQEINRVYKEMYKTDLEKDIISDTSGDFRKLMVALAKGRRAEDGSVIDYELIDQDARDLYDAGVKRKGTDVPKWISIMTERSVPHLQKVFDRYKSYSPYDMLESIRKEVKGDLENAFLNLVQCIQNKPLYFADRLYDSMKGKGTRDKVLIRIMVSRSEVDMLKIRSEFKRKYGKSLYYYIQQDTKGDYQKALLYLCGGDDYPYDVPDYA
B6: Δ37-48: AnxA2 deletion of aa 37-48 (protein)
chain: MSTVHEILCKLSLEGDHSTPPSAYGSVKAYTNFDAEKGVDEVTIVNILTNRSNAQRQDIAFAYQRRTKKELASALKSALSGHLETVILGLLKTPAQYDASELKASMKGLGTDEDSLIEIICSRTNQELQEINRVYKEMYKTDLEKDIISDTSGDFRKLMVALAKGRRAEDGSVIDYELIDQDARDLYDAGVKRKGTDVPKWISIMTERSVPHLQKVFDRYKSYSPYDMLESIRKEVKGDLENAFLNLVQCIQNKPLYFADRLYDSMKGKGTRDKVLIRIMVSRSEVDMLKIRSEFKRKYGKSLYYYIQQDTKGDYQKALLYLCGGDDYPYDVPDYA
B7: Δ62-75: AnxA2 deletion of aa 62-75 (protein)
chain: MSTVHEILCKLSLEGDHSTPPSAYGSVKAYTNFDAERDALNIETAIKTKGVDEVTIVNILTQRRTKKELASALKSALSGHLETVILGLLKTPAQYDASELKASMKGLGTDEDSLIEIICSRTNQELQEINRVYKEMYKTDLEKDIISDTSGDFRKLMVALAKGRRAEDGSVIDYELIDQDARDLYDAGVKRKGTDVPKWISIMTERSVPHLQKVFDRYKSYSPYDMLESIRKEVKGDLENAFLNLVQCIQNKPLYFADRLYDSMKGKGTRDKVLIRIMVSRSEVDMLKIRSEFKRKYGKSLYYYIQQDTKGDYQKALLYLCGGDDYPYDVPDYA
B8: Δ82-88: AnxA2 deletion of aa 82-88 (protein)
chain: MSTVHEILCKLSLEGDHSTPPSAYGSVKAYTNFDAERDALNIETAIKTKGVDEVTIVNILTNRSNAQRQDIAFAYQRRTKKSALSGHLETVILGLLKTPAQYDASELKASMKGLGTDEDSLIEIICSRTNQELQEINRVYKEMYKTDLEKDIISDTSGDFRKLMVALAKGRRAEDGSVIDYELIDQDARDLYDAGVKRKGTDVPKWISIMTERSVPHLQKVFDRYKSYSPYDMLESIRKEVKGDLENAFLNLVQCIQNKPLYFADRLYDSMKGKGTRDKVLIRIMVSRSEVDMLKIRSEFKRKYGKSLYYYIQQDTKGDYQKALLYLCGGDDYPYDVPDYA
B9: Δ37-66: AnxA2 deletion of aa 37-66 (protein)
chain: MSTVHEILCKLSLEGDHSTPPSAYGSVKAYTNFDAEQRQDIAFAYQRRTKKELASALKSALSGHLETVILGLLKTPAQYDASELKASMKGLGTDEDSLIEIICSRTNQELQEINRVYKEMYKTDLEKDIISDTSGDFRKLMVALAKGRRAEDGSVIDYELIDQDARDLYDAGVKRKGTDVPKWISIMTERSVPHLQKVFDRYKSYSPYDMLESIRKEVKGDLENAFLNLVQCIQNKPLYFADRLYDSMKGKGTRDKVLIRIMVSRSEVDMLKIRSEFKRKYGKSLYYYIQQDTKGDYQKALLYLCGGDDYPYDVPDYA
B10: ΔR2: AnxA2 deletion of aa 109-192 (protein)
chain: MSTVHEILCKLSLEGDHSTPPSAYGSVKAYTNFDAERDALNIETAIKTKGVDEVTIVNILTNRSNAQRQDIAFAYQRRTKKELASALKSALSGHLETVILGLLKTPAQQDARDLYDAGVKRKGTDVPKWISIMTERSVPHLQKVFDRYKSYSPYDMLESIRKEVKGDLENAFLNLVQCIQNKPLYFADRLYDSMKGKGTRDKVLIRIMVSRSEVDMLKIRSEFKRKYGKSLYYYIQQDTKGDYQKALLYLCGGDDYPYDVPDYA
B11: ΔR1: AnxA2 deletion of aa 37-108 (protein)
chain: MSTVHEILCKLSLEGDHSTPPSAYGSVKAYTNFDAEYDASELKASMKGLGTDEDSLIEIICSRTNQELQEINRVYKEMYKTDLEKDIISDTSGDFRKLMVALAKGRRAEDGSVIDYELIDQDARDLYDAGVKRKGTDVPKWISIMTERSVPHLQKVFDRYKSYSPYDMLESIRKEVKGDLENAFLNLVQCIQNKPLYFADRLYDSMKGKGTRDKVLIRIMVSRSEVDMLKIRSEFKRKYGKSLYYYIQQDTKGDYQKALLYLCGGDDYPYDVPDYA

Molecular target: PCSK9-V5 (Homo sapiens, UniProt Q8NBP7)
Sequence (Q8NBP7 153-692): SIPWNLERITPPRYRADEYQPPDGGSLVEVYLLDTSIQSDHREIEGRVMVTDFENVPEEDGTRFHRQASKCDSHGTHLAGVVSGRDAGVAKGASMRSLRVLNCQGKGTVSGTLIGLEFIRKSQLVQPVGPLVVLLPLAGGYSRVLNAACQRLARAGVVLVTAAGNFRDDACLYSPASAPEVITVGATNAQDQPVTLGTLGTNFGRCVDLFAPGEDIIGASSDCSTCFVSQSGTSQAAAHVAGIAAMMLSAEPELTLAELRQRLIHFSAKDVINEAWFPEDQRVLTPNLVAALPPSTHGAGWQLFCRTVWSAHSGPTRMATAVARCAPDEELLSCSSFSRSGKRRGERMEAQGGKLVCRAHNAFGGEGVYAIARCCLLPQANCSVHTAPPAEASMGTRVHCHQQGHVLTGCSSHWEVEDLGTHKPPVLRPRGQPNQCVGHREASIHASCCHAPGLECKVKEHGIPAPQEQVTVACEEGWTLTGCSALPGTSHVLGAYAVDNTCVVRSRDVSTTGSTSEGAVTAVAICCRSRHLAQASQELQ
Sequence (Q8NBP7 31-152 partner limits assumed): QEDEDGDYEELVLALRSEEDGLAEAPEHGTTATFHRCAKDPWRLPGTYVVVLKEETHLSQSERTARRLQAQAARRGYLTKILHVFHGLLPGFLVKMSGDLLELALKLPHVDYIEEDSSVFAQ
Experiment: Far Western blot with PCSK9-V5 conditioned media
Format: binding
Design: made in house; host or cells: CHO-K1 cells (conditioned medium, not purified)
Conditions: lysates of cells overexpressing the construct
Method: Lysates (20 to 30 μg protein), media or purified AnxA2-(His)6 were heated in reducing or non-reducing Laemmli sample buffer, resolved by SDS-PAGE on 8% glycine gels and electro-transferred onto nitrocellulose membranes (GE Healthcare). Following 1 h incubation in 5% skim milk in Tris-Buffered Saline-0.1% Tween (TBST), membranes where incubated with conditioned media of CHO-K1 cells overexpressing either an empty vector (pIRES-V5), PC5A-V5, CHRD-V5, pIRES-D374Y, PCSK9-V5 or its V5-tagged mutants, or incubated with purified AnxA2-(His)6 for 3 h at room temperature. […] For competition experiments, 10 μg of His-tagged PCSK9 or CHRD were added to the PCSK9-V5 media before Far Western blotting. For PCSK9 binding requirements with the ˜33 kDa protein, 1M NaCl, 10 mg/ml heparin, 1M NaCl+10 mg/ml heparin, or 100 mM EDTA were added to the PCSK9-V5 conditioned media used for Far Western blotting.
Wild type human Annexin A2 (AnxA2) (ATCC #MGC-2257) and Annexin A1 (AnxA1) (ATCC #MGC-5095) were purchased from ATCC and subcloned into NheI/SacI digested pIRES2-EGFP vector. An HA epitope ([…]) was fused by PCR mutagenesis at the C-terminus of both AnxA1 and AnxA2. Two-steps PCRs were performed on AnxA2 cDNA to introduce point mutations (N62Q; S64A; K28S+D34N+E36S; R37S+E43H+K47M; 77RRTKK (SEQ ID NO: 26)>AATAK (SEQ ID NO: 27); ^77RRTKK (SEQ ID NO: 26)>AATAA (SEQ ID NO: 28); ^77RRTKKELASALK (SEQ ID NO: 29)>^77AATAAELASALA (SEQ ID NO: 30); 80KKELA (SEQ ID NO: 31)>GKPLD (SEQ ID NO: 32)), or amino acid (aa) deletions (Δ2-24, aa 2-24; ΔR1, aa 37-108; ΔR2, aa 109-192; ΔR3, aa 193-268; ΔR4, aa 269-339; Δ25-36, aa 25-36; Δ37-48, aa 37-48; Δ49-61, aa 49-61; Δ62-75, aa 62-75; Δ37-66, aa 37-66; Δ74-88, aa 74-88; Δ82-88, aa 82-88; Δ89-101, aa 89-101; Δ102-108, aa 102-108) into pIRES2-AnxA2-EGFP vector (see Table 3 above). In addition, using PCR, the AnxA2 segment aa 49-75 was swapped with the corresponding AnxA1 segment aa 58-84 [AnxA1 (aa 58-84)>AnxA2 (aa 49-75)]. Similar swaps were performed for the corresponding AnxA2 sequence with AnxA1 (AnxA1>AnxA2: aa 25-27; aa 28-30; aa 31-33; aa 34-36; aa 37-39; aa 40-42; aa 43-45; aa 46-48; aa 49-75; aa 49-61; aa 62-75). All final cDNA constructs were verified by DNA sequencing.

| Molecule | PCSK9-V5 binding by Far Western blot |
| --- | --- |
| Δ2-24: AnxA2 deletion of aa 2-24 | does not affect binding to PCSK9 |
| B1 | abolished PCSK9 binding |
| B2 | abolished PCSK9 binding |
| B3 | had no major effect |
| B4 | had no major effect |
| B5 | abolished PCSK9 binding |
| B6 | abolished PCSK9 binding |
| B7 | abolished PCSK9 binding |
| B8 | abolished PCSK9 binding |
| B9 | abolished PCSK9 binding |
| B10 | had no major effect |
| B11 | completely abrogated the interaction |

From patent US8673850B2, “PCSK9 inhibitors and methods of use thereof” (Institut de Recherches Cliniques de Montreal, priority 2008, dated 2014)
